One may read the Km as the concentration of substrate that gives half-maximal velocity. The kcat is the maximal rate divided by the concentration of active sites. What is called kcat/Km is the turnover number divided by the Michaelis constant.

The values below come from PMC2659011.

Substrate in data set [1]: O=C(O)/C=C/Cl
Put plainly: purified protein. The note with it: 20 mM Na2HPO4 pH 9.0, 22 °C.

Substrate in data set [2]: O=C(O)/C=C\Cl
Put plainly: purified protein. To be noted: 20 mM Na2HPO4 pH 9.0, 22 °C.

Substrate in data set [3]: CC#CC(=O)C(=O)O
Description: spectrophotometric hydration assay. To be noted: 20 mM Na2HPO4 pH 9.0, 23 °C. The data set is classed as biochemical, Corynebacterium glutamicum.

B1: CaaD (trans-3-chloroacrylic acid dehalogenase) (Pseudomonas pavonaceae) (protein)
chain 1: PMISCDMRYGRTDEQKRALSAGLLRVISEATGEPRENIFFVIREGSGINFVEHGEHLPDYVPGNANDKALIAKLK
chain 2: PFIECHIATGLSVARKQQLIRDVIDVTNKSIGSDPKIINVLLVEHAEANMSISGRIHGEAASTERTPAVS
Turning to B1, in the data set “purified protein [1]”, the Km is 0.028 ± 0.003 mM, the catalytic constant (kcat) amounted to 1.9 ± 0.6 s⁻¹ and the kcat/Km is 68000 M⁻¹ s⁻¹.

B2: Cg10062 (Corynebacterium glutamicum ATCC 13032) (protein)
chain: PTYTCWSQRIRISREAKQRIAEAITDAHHELAHAPKYLVQVIFNEVEPDSYFIAAQSASENHIWVQATIRSGRTEKQKEELLLRLTQEIALILGIPNEEVWVYITEIPGSNMTEYGRLLMEPGEEEKWFNSLPEGLRERLTELEGSSE
Take B2: in the data set “purified protein [2]”, the Km came out at 19 ± 1 mM, the catalytic constant (kcat) stood at 3.5 ± 1.1 s⁻¹ and the kcat/Km came to 184 M⁻¹ s⁻¹. In addition, in the data set “purified protein [1]”, the Km turned out to be 78 ± 36 mM, the kcat stood at 0.06 ± 0.01 s⁻¹ and the kcat/Km was 0.8 M⁻¹ s⁻¹. Moreover, in data set [3], the Km was determined as 6.2 ± 0.75 mM, the kcat was found to be 0.33 ± 0.03 s⁻¹ and the kcat/Km turned out to be 50 M⁻¹ s⁻¹.
